Results published in US20230146072A1 (Pfizer, published 2023).

Biological target: T1, mouse GUCY2c (mouse, UniProt Q3UWA6 20-1072)
T1 construct: whole, on cells; 300.19 cells over-expressing mouse GUCY2c, formalin-fixed paraffin-embedded cell pellets
T1 sequence (looked up): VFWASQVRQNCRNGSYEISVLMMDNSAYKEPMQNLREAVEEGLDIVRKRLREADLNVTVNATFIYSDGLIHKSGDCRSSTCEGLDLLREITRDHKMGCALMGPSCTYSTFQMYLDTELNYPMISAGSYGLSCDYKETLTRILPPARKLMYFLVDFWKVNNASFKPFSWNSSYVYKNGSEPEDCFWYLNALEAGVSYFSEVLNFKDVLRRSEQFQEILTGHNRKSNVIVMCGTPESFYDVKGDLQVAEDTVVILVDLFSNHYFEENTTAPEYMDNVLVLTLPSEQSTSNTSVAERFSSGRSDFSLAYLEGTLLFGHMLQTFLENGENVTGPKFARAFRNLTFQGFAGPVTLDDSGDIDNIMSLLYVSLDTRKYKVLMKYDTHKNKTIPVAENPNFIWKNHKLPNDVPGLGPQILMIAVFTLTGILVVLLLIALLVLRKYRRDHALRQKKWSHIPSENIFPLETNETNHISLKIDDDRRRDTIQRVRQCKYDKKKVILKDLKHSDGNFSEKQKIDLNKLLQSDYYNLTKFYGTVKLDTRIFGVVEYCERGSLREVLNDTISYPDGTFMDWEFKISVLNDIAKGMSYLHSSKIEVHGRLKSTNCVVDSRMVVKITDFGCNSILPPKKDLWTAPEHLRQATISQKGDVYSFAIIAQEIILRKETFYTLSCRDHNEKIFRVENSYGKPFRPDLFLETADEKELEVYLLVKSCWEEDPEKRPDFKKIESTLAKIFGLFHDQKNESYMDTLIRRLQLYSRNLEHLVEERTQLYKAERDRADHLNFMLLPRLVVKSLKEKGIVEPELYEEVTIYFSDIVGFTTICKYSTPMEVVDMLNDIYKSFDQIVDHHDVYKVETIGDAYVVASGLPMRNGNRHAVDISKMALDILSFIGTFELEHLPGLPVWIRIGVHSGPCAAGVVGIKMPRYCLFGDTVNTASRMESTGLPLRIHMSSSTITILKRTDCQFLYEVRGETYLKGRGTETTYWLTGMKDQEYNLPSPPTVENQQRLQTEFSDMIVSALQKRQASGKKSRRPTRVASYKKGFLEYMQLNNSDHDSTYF
Assay: IHC on FFPE pellets of 300.19 cells over-expressing mouse GUCY2c
Procedure: Empty holes were filled with paraffin and the array was allowed to warm at 40 ° C. in an incubator overnight to anneal the donor cores with the recipient block. Five micron sections of the cell microarray were cut, transferred to a water bath and placed on Superfrost Excell microscope slides (Fisher). Slides were allowed to dry overnight. After deparaffinization and rehydration of tissue sections, heat induced epitope retrieval was performed in the Retriever 2100 pressure cooker (Electron Microscopy Sciences) in Borg Decloaker buffer pH 9.5 (Biocare Medical) or pH 6.0 Citrate buffer (Thermo Scientific) followed by cooling to room temperature (RT). Endogenous peroxidase activity was inactivated with Peroxidazed 1 (Biocare Medical) for 10 m. Non-specific protein interactions were blocked for 10 m with Background Punisher (Biocare Medical). Each hybridoma was incubated without dilution for 1 h under both heat induced epitope retrieval conditions. Sections were rinsed in TBS and hybridoma binding was detected with Envision+ Mouse HRP (DAKO) for 30 m. Slides were rinsed in TBS and immunoreactivity was developed with Betazoid DAB Chromogen Kit (Biocare Medical) for 5 m, followed by rinses in distilled water. […] Slides were evaluated by a pathologist to assess immunoreactivity. […]

B1: Anti-GUCY2c antibody Ab288 (antibody, mouse IgG1, kappa, V domains shown)
VH: DVQLQESGPGLVKPSQSLSLTCTVTGYSITSDYAWNWIRQFPGNNLEWMGYISYSGSTRYNPSLKSRISITRDTSKNQFFLQLNSVTSEDTATYYCAREDGYVAMDYWGQGTSVTVSS
VL: DIVLTQSPASLAVSLGQRATISCRASESVEYFGTSFMQWYQQRPGQPPKLLIYAASNVESGVPVRFSGSGSGTDFSLNIHPVEEDDIAMYFCQQSRKVPWTFGGGTNLEIKR
  binding result: no binding (tested: 2 µg/ml and 10 µg/ml)
